This assay deals with FcαRI (CD89) (Homo sapiens, UniProt P24071). Kind of assay: SPR. In general terms: In SPR one partner is held on a chip, and binding of the other changes the refractive index at the surface.
FcαRI (CD89), sequence (P24071 22-287): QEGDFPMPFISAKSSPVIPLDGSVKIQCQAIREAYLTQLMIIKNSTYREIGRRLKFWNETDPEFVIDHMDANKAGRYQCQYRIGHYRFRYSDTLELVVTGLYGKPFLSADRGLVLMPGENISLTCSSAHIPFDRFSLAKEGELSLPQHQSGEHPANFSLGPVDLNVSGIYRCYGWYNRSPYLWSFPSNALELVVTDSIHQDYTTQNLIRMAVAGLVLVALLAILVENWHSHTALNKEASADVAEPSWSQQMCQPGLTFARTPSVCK

B1: IgA2 (glycoforms) (protein)
chain: ASPTSPKVFPLSLDSTPQDGNVVVACLVQGFFPQEPLSVTWSESGQNVTARNFPPSQDASGDLYTTSSQLTLPATQCPDGKSVTCHVKHYTNSSQDVTVPCRVPPPPPCCHPRLSLHRPALEDLLLGSEANLTCTLTGLRDASGATFTWTPSSGKSAVQGPPERDLCGCYSVSSVLPGCAQPWNHGETFTCTAAHPELKTPLTANITKSGNTFRPEVHLLPPPSEELALNELVTLTCLARGFSPKDVLVRWLQGSQELPREKYLTWASRQEPSQGTTTYAVTSILRVAAEDWKKGETFSCMVGHEALPLAFTQKTIDRMAGSCCVADWQMPPPYVVLDLPQETLEEETPGANLWPTTITFLTLFLLSLFYSTALTVTSVRGPSGKREGPQY
Broadly, the Kd is the free concentration of one partner at which half of the binding sites on the other are occupied at equilibrium, for simple one-to-one binding. Take B1: the Kd is ~300 nM.

The values are drawn from PMC11026580 (2024).
